B6: endogenous KIF11 (kinesin family member 11) (other)
chain: MASQPNSSAKKKEEKGKNIQVVVRCRPFNLAERKASAHSIVECDPVRKEVSVRTGGLADKSSRKTYTFDMVFGASTKQIDVYRSVVCPILDEVIMGYNCTIFAYGQTGTGKTFTMEGERSPNEEYTWEEDPLAGIIPRTLHQIFEKLTDNGTEFSVKVSLLEIYNEELFDLLNPSSDVSERLQMFDDPRNKRGVIIKGLEEITVHNKDEVYQILEKGAAKRTTAATLMNAYSSRSHSVFSVTIHMKETTIDGEELVKIGKLNLVDLAGSENIGRSGAVDKRAREAGNINQSLLTLGRVITALVERTPHVPYRESKLTRILQDSLGGRTRTSIIATISPASLNLEETLSTLEYAHRAKNILNKPEVNQKLTKKALIKEYTEEIERLKRDLAAAREKNGVYISEENFRVMSGKLTVQEEQIVELIEKIGAVEEELNRVTELFMDNKNELDQCKSDLQNKTQELETTQKHLQETKLQLVKEEYITSALESTEEKLHDAASKLLNTVEETTKDVSGLHSKLDRKKAVDQHNAEAQDIFGKNLNSLFNNMEELIKDGSSKQKAMLEVHKTLFGNLLSSSVSALDTITTVALGSLTSIPENVSTHVSQIFNMILKEQSLAAESKTVLQELINVLKTDLLSSLEMILSPTVVSILKINSQLKHIFKTSLTVADKIEDQKKELDGFLSILCNNLHELQENTICSLVESQKQCGNLTEDLKTIKQTHSQELCKLMNLWTERFCALEEKCENIQKPLSSVQENIQQKSKDIVNKMTFHSQKFCADSDGFSQELRNFNQEGTKLVEESVKHSDKLNGNLEKISQETEQRCESLNTRTVYFSEQWVSSLNEREQELHNLLEVVSQCCEASSSDITEKSDGRKAAHEKQHNIFLDQMTIDEDKLIAQNLELNETIKIGLTKLNCFLEQDLKLDIPTGTTPQRKSYLYPSTLVRTEPREHLLDQLKRKQPELLMMLNCSENNKEETIPDVDVEEAVLGQYTEEPLSQEPSVDAGVDCSSIGGVPFFQHKKSHGKDKENRGINTLERSKVEETTEHLVTKSRLPLRAQINL
notes: Endogenous protein in cell extracts; GenBank NM-004523 printed for the gene; also called EG5

In test [1] the target is B6. As to the kind of experiment: immunoprecipitation from transfected A549 cells.
In test [2] the target is B6. As to the kind of experiment: immunoprecipitation from transfected LC319 cells.
The target of test [3] is B6. Kind of test: anti-Flag and anti-HA immunoprecipitation from transfected LC319 cells, silver stain, MALDI-TOF.
Description: Cells were extracted in IP-buffer (0.5% NP-40, 50 mM Tris-HCl, 150 mM NaCl, and protease inhibitor) for 30 min on ice. Extracts were centrifuged at 14,000 rpm for 15 min, and supernatants were subjected to immunoprecipitation using anti-Flag M2 agarose (Sigma-Aldrich) and anti-HA beads (Sigma-Aldrich) for 1-2 hours. The beads were washed six times with IP-buffer, and protein was eluted by boiling the beads in Laemmli sample buffer after removing the final wash fraction. The eluted protein was resolved by SDS-PAGE and stained with silver staining. A 125 kDa-band was extracted by gel extraction, and used for mass spectrometric sequencing using MALDI-TOF mass spectrometry.
The target of test [4] is B6. As to the kind of experiment: reciprocal immunoprecipitation with anti-KOC1 and anti-KIF11 polyclonal antibodies, western blot. A general note: In western blotting, separated proteins are transferred to a membrane and probed.
Test [5] deals with T1, EYFP-fused KIF11 (EYFP-KIF11) (human, UniProt P52732 1-1056).
T1 construct: Expressed in COS-7 cells; not shown: EYFP from pEYFP-N1 vector
T1 sequence: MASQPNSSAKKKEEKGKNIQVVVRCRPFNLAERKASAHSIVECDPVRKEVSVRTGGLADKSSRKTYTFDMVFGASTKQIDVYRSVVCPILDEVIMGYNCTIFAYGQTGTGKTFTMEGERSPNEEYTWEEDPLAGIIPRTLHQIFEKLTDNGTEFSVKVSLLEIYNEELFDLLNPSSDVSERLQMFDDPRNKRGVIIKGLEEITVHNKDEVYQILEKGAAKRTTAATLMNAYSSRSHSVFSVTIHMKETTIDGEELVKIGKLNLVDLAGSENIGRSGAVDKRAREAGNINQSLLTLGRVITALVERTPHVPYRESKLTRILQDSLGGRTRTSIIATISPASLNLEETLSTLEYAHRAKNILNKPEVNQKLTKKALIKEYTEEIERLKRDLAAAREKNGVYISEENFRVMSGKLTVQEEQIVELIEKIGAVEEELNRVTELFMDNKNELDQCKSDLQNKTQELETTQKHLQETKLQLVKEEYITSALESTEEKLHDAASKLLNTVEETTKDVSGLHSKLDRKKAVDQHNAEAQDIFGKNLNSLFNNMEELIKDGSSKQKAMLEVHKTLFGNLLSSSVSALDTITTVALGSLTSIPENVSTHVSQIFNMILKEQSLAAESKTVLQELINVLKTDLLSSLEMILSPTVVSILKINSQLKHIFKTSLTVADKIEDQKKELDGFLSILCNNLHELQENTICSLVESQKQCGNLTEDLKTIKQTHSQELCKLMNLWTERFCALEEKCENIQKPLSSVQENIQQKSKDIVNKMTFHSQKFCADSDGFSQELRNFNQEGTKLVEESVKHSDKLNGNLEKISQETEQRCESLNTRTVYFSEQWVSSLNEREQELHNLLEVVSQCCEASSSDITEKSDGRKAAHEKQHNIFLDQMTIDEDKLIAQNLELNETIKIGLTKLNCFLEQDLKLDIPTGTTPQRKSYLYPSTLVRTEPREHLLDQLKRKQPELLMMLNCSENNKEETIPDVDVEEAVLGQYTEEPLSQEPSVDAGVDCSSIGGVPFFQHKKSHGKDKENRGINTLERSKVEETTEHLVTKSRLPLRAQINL
Kind of test: live-cell fluorescence microscopy of co-transfected COS-7 cells (co-localised particles).

In test [6] the target is dynactin 1 (DCTN1; p150, glued homolog, Drosophila), endogenous (human, UniProt Q14203 1-1278, limits assumed). Kind of test: immunoprecipitation with anti-KIF11 polyclonal and anti-DCTN1 monoclonal antibody; 150-kDa partner first identified by MALDI-TOF from LC319 lysate.
Chain of dynactin 1 (DCTN1; p150, glued homolog, Drosophila), endogenous (Q14203 whole entry): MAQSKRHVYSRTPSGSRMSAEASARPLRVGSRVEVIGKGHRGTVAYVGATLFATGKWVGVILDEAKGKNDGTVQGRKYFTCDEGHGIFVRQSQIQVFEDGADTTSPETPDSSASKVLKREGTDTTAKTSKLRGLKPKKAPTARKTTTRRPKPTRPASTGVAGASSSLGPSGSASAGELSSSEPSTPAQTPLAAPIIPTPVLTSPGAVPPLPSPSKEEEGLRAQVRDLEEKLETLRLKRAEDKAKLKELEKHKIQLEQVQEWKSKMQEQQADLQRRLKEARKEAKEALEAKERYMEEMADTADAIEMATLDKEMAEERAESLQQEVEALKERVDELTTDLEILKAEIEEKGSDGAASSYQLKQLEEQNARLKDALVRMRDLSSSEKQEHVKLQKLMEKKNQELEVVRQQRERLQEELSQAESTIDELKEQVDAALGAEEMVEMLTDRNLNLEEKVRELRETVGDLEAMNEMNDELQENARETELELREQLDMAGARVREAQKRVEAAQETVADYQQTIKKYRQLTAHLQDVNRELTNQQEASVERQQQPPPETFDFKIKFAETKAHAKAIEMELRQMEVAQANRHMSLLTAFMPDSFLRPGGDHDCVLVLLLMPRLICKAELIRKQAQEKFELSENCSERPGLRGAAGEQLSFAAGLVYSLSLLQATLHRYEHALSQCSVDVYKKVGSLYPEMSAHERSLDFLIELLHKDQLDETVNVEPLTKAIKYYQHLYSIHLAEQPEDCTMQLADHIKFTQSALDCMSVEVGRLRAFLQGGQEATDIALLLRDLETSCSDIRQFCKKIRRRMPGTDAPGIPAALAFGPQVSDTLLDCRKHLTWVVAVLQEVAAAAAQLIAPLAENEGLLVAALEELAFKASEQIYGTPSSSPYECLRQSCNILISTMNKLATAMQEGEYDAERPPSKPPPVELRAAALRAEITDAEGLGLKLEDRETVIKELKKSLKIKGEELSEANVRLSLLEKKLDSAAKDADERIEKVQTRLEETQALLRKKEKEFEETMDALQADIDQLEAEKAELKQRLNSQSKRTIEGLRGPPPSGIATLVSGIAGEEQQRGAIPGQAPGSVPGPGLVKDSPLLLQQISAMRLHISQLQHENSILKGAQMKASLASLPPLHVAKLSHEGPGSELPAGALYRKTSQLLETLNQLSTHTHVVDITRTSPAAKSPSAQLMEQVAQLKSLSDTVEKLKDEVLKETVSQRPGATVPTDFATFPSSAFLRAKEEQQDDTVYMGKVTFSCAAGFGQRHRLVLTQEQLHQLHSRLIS

Here are results for 6 molecules from patent US20080050378A1 (ONCOTHERAPY SCIENCE, published 2008).

B1: KOC1DEL2 (KOC1 deletion mutant 2; 2xRRM+2xKH, N-terminal FLAG, C-terminal HA) (other)
chain: MNKLYIGNLSENAAPSDLESIFKDAKIPVSGPFLVKTGYAFVDCPDESWALKAIEALSGKIELHGKPIEVEHSVPKRQRIRKLQIRNIPPHLQWEVLDSLLVQYGVVESCEQVNTDSETAVVNVTYSSKDQARQALDKLNGFQLENFTLKVAYIPDEMAAQQNPLQQPRGRRGLGQRGSSRQGSPGSVSKQKPCDLPLRLLVPTQFVGAIIGKEGATIRNITKQTQSKIDVHRKENAGAAEKSITILSTPEGTSAACKSILEIMHKEAQDIKFTEEIPLKILAHNNFVGRLIGKEGRNLKKIEQDTDTKITISPLQELTLYNPERTITVKGNVETCAKAEEEIMKKIRESYENDIASMNLQAHLIPGLNLNALGLFPPTSGMPPPTSGPPSAMTPPYPQFEQSETE
notes: Lacks the C-terminal two KH domains; not shown: N-terminal FLAG tag; C-terminal HA tag
B1: in test [1], the binding result was “binds”.

B2: KOC1DEL3 (KOC1 deletion mutant 3; 2xRRM without KH, N-terminal FLAG, C-terminal HA) (other)
chain: MNKLYIGNLSENAAPSDLESIFKDAKIPVSGPFLVKTGYAFVDCPDESWALKAIEALSGKIELHGKPIEVEHSVPKRQRIRKLQIRNIPPHLQWEVLDSLLVQYGVVESCEQVNTDSETAVVNVTYSSKDQARQALDKLNGFQLENFTLKVAYIPDEMAAQQNPLQQPRGRRGLGQRGSSRQGSPGSVSKQKPCDLP
notes: Contains the two RRMs and lacks the four KH domains; also called the RRM domains; not shown: N-terminal FLAG tag; C-terminal HA tag
As for B2, the binding result in test [2] is “binds”.

B3: FLAG- and HA-tagged KOC1 (pCAGGS-n3FH-KOC1; NH2-terminal FLAG, COOH-terminal HA) (other)
chain: MNKLYIGNLSENAAPSDLESIFKDAKIPVSGPFLVKTGYAFVDCPDESWALKAIEALSGKIELHGKPIEVEHSVPKRQRIRKLQIRNIPPHLQWEVLDSLLVQYGVVESCEQVNTDSETAVVNVTYSSKDQARQALDKLNGFQLENFTLKVAYIPDEMAAQQNPLQQPRGRRGLGQRGSSRQGSPGSVSKQKPCDLPLRLLVPTQFVGAIIGKEGATIRNITKQTQSKIDVHRKENAGAAEKSITILSTPEGTSAACKSILEIMHKEAQDIKFTEEIPLKILAHNNFVGRLIGKEGRNLKKIEQDTDTKITISPLQELTLYNPERTITVKGNVETCAKAEEEIMKKIRESYENDIASMNLQAHLIPGLNLNALGLFPPTSGMPPPTSGPPSAMTPPYPQFEQSETETVHLFIPALSVGAIIGKQGQHIKQLSRFAGASIKIAPAEAPDAKVRMVIITGPPEAQFKAQGRIYGKIKEENFVSPKEEVKLEAHIRVPSFAAGRVIGKGGKTVNELQNLSSAEVVVPRDQTPDENDQVVVKITGHFYACQVAQRKIQEILTQVKQHQQQKALQSGPPQSRRK
notes: also called pCAGGS-FLAG-tagged-KOC1; full length KOC1 construct; not shown: N-terminal FLAG tag; C-terminal HA tag
On to B3, for which the binding result in test [3] is “binds”.

B4: endogenous KOC1 (KH domain containing protein over-expressed in cancer) (other)
chain: MNKLYIGNLSENAAPSDLESIFKDAKIPVSGPFLVKTGYAFVDCPDESWALKAIEALSGKIELHGKPIEVEHSVPKRQRIRKLQIRNIPPHLQWEVLDSLLVQYGVVESCEQVNTDSETAVVNVTYSSKDQARQALDKLNGFQLENFTLKVAYIPDEMAAQQNPLQQPRGRRGLGQRGSSRQGSPGSVSKQKPCDLPLRLLVPTQFVGAIIGKEGATIRNITKQTQSKIDVHRKENAGAAEKSITILSTPEGTSAACKSILEIMHKEAQDIKFTEEIPLKILAHNNFVGRLIGKEGRNLKKIEQDTDTKITISPLQELTLYNPERTITVKGNVETCAKAEEEIMKKIRESYENDIASMNLQAHLIPGLNLNALGLFPPTSGMPPPTSGPPSAMTPPYPQFEQSETETVHLFIPALSVGAIIGKQGQHIKQLSRFAGASIKIAPAEAPDAKVRMVIITGPPEAQFKAQGRIYGKIKEENFVSPKEEVKLEAHIRVPSFAAGRVIGKGGKTVNELQNLSSAEVVVPRDQTPDENDQVVVKITGHFYACQVAQRKIQEILTQVKQHQQQKALQSGPPQSRRK
notes: Endogenous protein in cell extracts; GenBank NM-006547 printed for the gene; also called IMP-3
B4: the binding result in test [4] is “binds”.

B5: ECFP-fused KOC1 (ECFP-KOC1) (other)
chain: MNKLYIGNLSENAAPSDLESIFKDAKIPVSGPFLVKTGYAFVDCPDESWALKAIEALSGKIELHGKPIEVEHSVPKRQRIRKLQIRNIPPHLQWEVLDSLLVQYGVVESCEQVNTDSETAVVNVTYSSKDQARQALDKLNGFQLENFTLKVAYIPDEMAAQQNPLQQPRGRRGLGQRGSSRQGSPGSVSKQKPCDLPLRLLVPTQFVGAIIGKEGATIRNITKQTQSKIDVHRKENAGAAEKSITILSTPEGTSAACKSILEIMHKEAQDIKFTEEIPLKILAHNNFVGRLIGKEGRNLKKIEQDTDTKITISPLQELTLYNPERTITVKGNVETCAKAEEEIMKKIRESYENDIASMNLQAHLIPGLNLNALGLFPPTSGMPPPTSGPPSAMTPPYPQFEQSETETVHLFIPALSVGAIIGKQGQHIKQLSRFAGASIKIAPAEAPDAKVRMVIITGPPEAQFKAQGRIYGKIKEENFVSPKEEVKLEAHIRVPSFAAGRVIGKGGKTVNELQNLSSAEVVVPRDQTPDENDQVVVKITGHFYACQVAQRKIQEILTQVKQHQQQKALQSGPPQSRRK
notes: Expressed in COS-7 cells; not shown: ECFP from pECFP-N1 vector
For the molecule B5, the binding result in test [5] is on record as “binds”.

Take B6: the binding result in test [6] was “binds”.
